Data from US12269859B2, “Synthetic immune receptors and methods of use thereof” (Angeles Therapeutics, Inc., priority 2016, dated 2025).

B1: 040417-R02 (protein)
chain: MALPVTALLLPLALLLHAARPEVQLVESGGGLVQPGRSLRLSCAASGFTFDDYAMHWVRQAPGKGLEWVSGISWNSGSIGYADSVKGRFTISRDNAKNSLYLQMNSLRAEDTALYYCAKDKGGGYYDFWSGSDYWGQGTLVTVSSLEDLKNVFPPEVAVFEPSKAEIAHTQKATLVCLATGFYPDHVELSWWVNGKEVHSGVCTDPQPLKEQPALNDSRYCLSSRLRVSATFWQNPRNHFRCQVQFYGLSENDEWTQDRAKPVTQIVSAEAWGRADCGITSASYHQGVLSATILYEILLGKATLYAVLVSALVLMAMVKRKDSRGRAKRSGSGATNFSLLKQAGDVEENPGPTSMDWIWRILFLVGAATGAHSFESSELTQDPAVSVALGQTVRITCQGDSLRSYYASWYQQKPGQAPVLVIYGKNNRPSGIPDRFSGSSSGNTASLTITGAQAEDEADYYCNSRDSSGWVFGGGTKLTVLTRIQNPDPAVYQLRDSKSSDKSVCLFTDFDSQTNVSQSKDSDVYITDKCVLDMRSMDFKSNSAVAWSNKSDFACANAFNNSIIPEDTFFPSSDVPCDVKLVEKSFETDTNLNFQNLSVIGFRILLLKVAGFNLLMTLRLWSSRAKRSGSGVKQTLNFDLLKLAGDVESNPGPSRGHMTEYKPTVRLATRDDVPRAVRTLAAAFADYPATRHTVDPDRHIERVTELQELFLTRVGLDIGKVWVADDGAAVAVWTTPESVEAGAVFAEIGPRMAELSGSRLAAQQQMEGLLAPHRPKEPAWFLATVGVSPDHQGKGLGSAVVLPGVEAAERAGVPAFLETSAPRNLPFYERLGFTVTADVEVPEGPRTWCMTRKPGA
B2: 040417-V03 (protein)
chain: MALPVTALLLPLALLLHAARPEVQLVESGGGLVQPGRSLRLSCAASGFTFDDYAMHWVRQAPGKGLEWVSGISWNSGSIGYADSVKGRFTISRDNAKNSLYLQMNSLRAEDTALYYCAKDKGGGYYDFWSGSDYWGQGTLVTVSSLEIQNPDPAVYQLRDSKSSDKSVCLFTDFDSQTNVSQSKDSDVYITDKCVLDMRSMDFKSNSAVAWSNKSDFACANAFNNSIIPEDTFFPSSDVPCDVKLVEKSFETDTNLNFQNLSVIGFRILLLKVAGFNLLMTLRLWSSRAKRSGSGVKQTLNFDLLKLAGDVESNPGPTSMDWIWRILFLVGAATGAHSFESSELTQDPAVSVALGQTVRITCQGDSLRSYYASWYQQKPGQAPVLVIYGKNNRPSGIPDRFSGSSSGNTASLTITGAQAEDEADYYCNSRDSSGWVFGGGTKLTVLTREDLKNVFPPEVAVFEPSKAEIAHTQKATLVCLATGFYPDHVELSWWVNGKEVHSGVCTDPQPLKEQPALNDSRYCLSSRLRVSATFWQNPRNHFRCQVQFYGLSENDEWTQDRAKPVTQIVSAEAWGRADCGITSASYHQGVLSATILYEILLGKATLYAVLVSALVLMAMVKRKDSRGRAKRSGSGATNFSLLKQAGDVEENPGPSRGHMTEYKPTVRLATRDDVPRAVRTLAAAFADYPATRHTVDPDRHIERVTELQELFLTRVGLDIGKVWVADDGAAVAVWTTPESVEAGAVFAEIGPRMAELSGSRLAAQQQMEGLLAPHRPKEPAWFLATVGVSPDHQGKGLGSAVVLPGVEAAERAGVPAFLETSAPRNLPFYERLGFTVTADVEVPEGPRTWCMTRKPGA
B3: 040417-W08 (protein)
chain: MALPVTALLLPLALLLHAARPQVQLVQSGAEVKKPGASVKVSCKASGYTFTSYDINWVRQATGQGLEWMGWMNPNSGNTGYAQKFQGRVTMTRNTSISTAYMELSSLRSEDTAVYYCARGDSTKVEIKLEIQNPDPAVYQLRDSKSSDKSVCLFTDFDSQTNVSQSKDSDVYITDKCVLDMRSMDFKSNSAVAWSNKSDFACANAFNNSIIPEDTFFPSSDVPCDVKLVEKSFETDTNLNFQNLSVIGFRILLLKVAGFNLLMTLRLWSSRAKRSGSGVKQTLNFDLLKLAGDVESNPGPTSMDWIWRILFLVGAATGAHSFEQSVLTQPRSVSGSPGQSVTISCTGTSSDVGGYNYVSWYQQHPGEAPKLIIYDADKRPSGISNRFSSGKSGNTASLTISGLQVEDEADYYCCSYAGGSTWVFGGGTKVTVLTREDLKNVFPPEVAVFEPSKAEIAHTQKATLVCLATGFYPDHVELSWWVNGKEVHSGVCTDPQPLKEQPALNDSRYCLSSRLRVSATFWQNPRNHFRCQVQFYGLSENDEWTQDRAKPVTQIVSAEAWGRADCGITSASYHQGVLSATILYEILLGKATLYAVLVSALVLMAMVKRKDSRGRAKRSGSGATNFSLLKQAGDVEENPGPSRGHMTEYKPTVRLATRDDVPRAVRTLAAAFADYPATRHTVDPDRHIERVTELQELFLTRVGLDIGKVWVADDGAAVAVWTTPESVEAGAVFAEIGPRMAELSGSRLAAQQQMEGLLAPHRPKEPAWFLATVGVSPDHQGKGLGSAVVLPGVEAAERAGVPAFLETSAPRNLPFYERLGFTVTADVEVPEGPRTWCMTRKPGA
B4: 042517-B02 (protein)
chain: MALPVTALLLPLALLLHAARPQSALTQPASASGSPGQSVTISCTGTSSDVGGYNYVSWYQQHPGKAPKLMIYDVSNRPSGVSNRFSGSKSGNTASLTISGLQAEDEADYYCSSYTSSSTLYVFGTGTQLTVLLEDLKNVFPPEVAVFEPSKAEIAHTQKATLVCLATGFYPDHVELSWWVNGKEVHSGVCTDPQPLKEQPALNDSRYCLSSRLRVSATFWQNPRNHFRCQVQFYGLSENDEWTQDRAKPVTQIVSAEAWGRADCGITSASYHQGVLSATILYEILLGKATLYAVLVSALVLMAMVKRKDSRGRAKRSGSGATNFSLLKQAGDVEENPGPTSMDWIWRILFLVGAATGAHSFEEVQLQQSGPGLVKPSQTLSLTCAISGDSMLSNSDTWNWIRQSPSRGLEWLGRTYHRSTWYDDYASSVRGRVSINVDTSKNQYSLQLNAVTPEDTGVYYCARVRLQDGNSWSDAFDVWGQGTMVTVSSTRIQNPDPAVYQLRDSKSSDKSVCLFTDFDSQTNVSQSKDSDVYITDKCVLDMRSMDFKSNSAVAWSNKSDFACANAFNNSIIPEDTFFPSSDVPCDVKLVEKSFETDTNLNFQNLSVIGFRILLLKVAGFNLLMTLRLWSSRAKRSGSGVKQTLNFDLLKLAGDVESNPGPSRGHMTEYKPTVRLATRDDVPRAVRTLAAAFADYPATRHTVDPDRHIERVTELQELFLTRVGLDIGKVWVADDGAAVAVWTTPESVEAGAVFAEIGPRMAELSGSRLAAQQQMEGLLAPHRPKEPAWFLATVGVSPDHQGKGLGSAVVLPGVEAAERAGVPAFLETSAPRNLPFYERLGFTVTADVEVPEGPRTWCMTRKPGA
B5: 041117-S01 (protein)
chain: MALPVTALLLPLALLLHAARPEVQLQQSGPGLVKPSQTLSLTCAISGDSVLSNSDTWNWIRQSPSRGLEWLGRTYHRSTWYDDYASSVRGRVSINVDTSKNQYSLQLNAVTPEDTGVYYCARDRLQDGNSWSDAFDVWGQGTMVTVSSLEDLKNVFPPEVAVFEPSKAEIAHTQKATLVCLATGFYPDHVELSWWVNGKEVHSGVCTDPQPLKEQPALNDSRYCLSSRLRVSATFWQNPRNHFRCQVQFYGLSENDEWTQDRAKPVTQIVSAEAWGRADCGITSASYHQGVLSATILYEILLGKATLYAVLVSALVLMAMVKRKDSRGRAKRSGSGATNFSLLKQAGDVEENPGPTSMDWIWRILFLVGAATGAHSFEQSALTQPASVSGSPGQSITISCTGTSSDVGGYNYVSWYQQHPGKAPKLMIYDVSNRPSGVSNRFSGSKSGNTASLTISGLQAEDEADYYCSSYTSSSTLVYVFGTGTKVTVLTRIQNPDPAVYQLRDSKSSDKSVCLFTDFDSQTNVSQSKDSDVYITDKCVLDMRSMDFKSNSAVAWSNKSDFACANAFNNSIIPEDTFFPSSDVPCDVKLVEKSFETDTNLNFQNLSVIGFRILLLKVAGFNLLMTLRLWSSRAKRSGSGVKQTLNFDLLKLAGDVESNPGPSRGHMTEYKPTVRLATRDDVPRAVRTLAAAFADYPATRHTVDPDRHIERVTELQELFLTRVGLDIGKVWVADDGAAVAVWTTPESVEAGAVFAEIGPRMAELSGSRLAAQQQMEGLLAPHRPKEPAWFLATVGVSPDHQGKGLGSAVVLPGVEAAERAGVPAFLETSAPRNLPFYERLGFTVTADVEVPEGPRTWCMTRKPGA
B6: 041917-L04 (protein)
chain: MALPVTALLLPLALLLHAARPLEGKPIPNPLLGLDSTGSGEDLKNVFPPEVAVFEPSKAEIAHTQKATLVCLATGFYPDHVELSWWVNGKEVHSGVCTDPQPLKEQPALNDSRYCLSSRLRVSATFWQNPRNHFRCQVQFYGLSENDEWTQDRAKPVTQIVSAEAWGRADCGITSASYHQGVLSATILYEILLGKATLYAVLVSALVLMAMVKRKDSRGRAKRSGSGATNFSLLKQAGDVEENPGPTSMALPVTALLLPLALLLHAARPQVQLVQSGAEVKKPGASVKVSCKASGYTFTSYDINWVRQATGQGLEWMGWMNPNSGNTGYAQKFQGRVTMTRNTSISTAYMELSSLRSEDTAVYYCARGDSTKVEIKGGGGSGGGGSGGGGSQSVLTQPRSVSGSPGQSVTISCTGTSSDVGGYNYVSWYQQHPGEAPKLIIYDADKRPSGISNRFSSGKSGNTASLTISGLQVEDEADYYCCSYAGGSTWVFGGGTKVTVLTREQKLISEEDGSGIQNPDPAVYQLRDSKSSDKSVCLFTDFDSQTNVSQSKDSDVYITDKCVLDMRSMDFKSNSAVAWSNKSDFACANAFNNSIIPEDTFFPSSDVPCDVKLVEKSFETDTNLNFQNLSVIGFRILLLKVAGFNLLMTLRLWSSRAKRSGSGVKQTLNFDLLKLAGDVESNPGPSRGHMTEYKPTVRLATRDDVPRAVRTLAAAFADYPATRHTVDPDRHIERVTELQELFLTRVGLDIGKVWVADDGAAVAVWTTPESVEAGAVFAEIGPRMAELSGSRLAAQQQMEGLLAPHRPKEPAWFLATVGVSPDHQGKGLGSAVVLPGVEAAERAGVPAFLETSAPRNLPFYERLGFTVTADVEVPEGPRTWCMTRKPGA

Tested on: target antigen-expressing cell line
Assay: Jurkat NFAT-GFP assay, coculture with target cell lines expressing the respective target antigen (summary Table 10A)
Type: cell-based, human
Set-up: key: The signs +/−, +, 2+ etc. after the name of the cell lines indicate the relative degree of positivity on the Jurkat-NFAT-GFP assay as measured by the % GFP positive cells; +: relative degree of positivity on the Jurkat-NFAT-GFP assay as measured by the % GFP positive cells; 2+: relative degree of positivity on the Jurkat-NFAT-GFP assay as measured by the % GFP positive cells
Conditions: relative % GFP positive cells; for NFAT-GFP ASSAY Positive Cell lines: NALM6: SIR-expressing Jurkat-NFAT-GFP cells cocultured with NALM6; for NFAT-GFP ASSAY Positive Cell lines: RAJI: SIR-expressing Jurkat-NFAT-GFP cells cocultured with RAJI
Outline: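 Stable SIR expression in Jurkat-NFAT-GFP cells by lentiviral transfer and puromycin selection; coculture with target cells (E:T approximately 1:2) for 4 to 18 hours; flow cytometric measurement of NFAT-driven GFP; scoring as positive when % GFP-positive cells exceeds that of parental reporter cells.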

Molecule	NFAT-GFP ASSAY Positive Cell lines: NALM6	NFAT-GFP ASSAY Positive Cell lines: RAJI
B1	(+)	
B2		RAJI (+/−)
B3		RAJI (2+)
B4	(+/−)	RAJI (+), NALM6
B5		RAJI (+/−)
B6		RAJI (+/−)
